We go through four molecules from paper PMC4513076.

Data set [1] concerns the target T1, IolR (Salmonella enterica) (UniProt A0A0H3NJ61).
T1 sequence: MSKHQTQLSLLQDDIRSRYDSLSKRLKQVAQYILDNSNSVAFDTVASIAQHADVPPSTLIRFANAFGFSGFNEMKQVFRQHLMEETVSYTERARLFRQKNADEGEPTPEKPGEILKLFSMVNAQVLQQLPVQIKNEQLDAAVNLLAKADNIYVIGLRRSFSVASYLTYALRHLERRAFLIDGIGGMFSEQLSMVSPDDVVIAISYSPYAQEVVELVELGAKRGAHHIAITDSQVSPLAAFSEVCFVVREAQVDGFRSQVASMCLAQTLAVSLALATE
The data set can be described thus: EMSA. (Mobility shift assays separate free from complexed probe on a gel.)

The target of data set [2] is IolR, myo-inositol catabolism repressor (RpiR-like transcriptional repressor) of Salmonella enterica (Salmonella enterica serovar Typhimurium LT2). Put plainly: SEC. Background: SEC sorts molecules by how far they enter the pores of the column.
The target in data set [3] is IolR (Salmonella enterica, UniProt A0A0H3NJ61 1-277). The data set can be described thus: EMSA.

Regarding “CATACCGGTTTCCCTTACACAGAAGTGACCGGATAATTTTAAACGCTTTCGCTATTTTATGCTGTGACGTTTCCCGGATGTTGCGTTTTTCCTGCCAGATAGCGCGTTTTGAAACGGGTGAAATGTTCACCTAAACTGGTTGCCGCCTCG (double strand) [Ppat (150 nt)]”, the binding result in data set [1] is on record as “binds”.
Same read-out and setting: in the case of “CATGCATGATACTCTAATAGAACGAAAATTTCGTAAATAACCATATTAGCACAAATGAACTGAACATACAGTTAACAACATTCAAATTGCGCTGTGGTTACCTTCAGTACAGAATTTGCTGGCGGGCTGGGTTCTGAGCAATCTGAATCTGACCGCATAAATGCGACAGGATCAG (double strand) [PiolR (175 nt)]” it was “binds”.
As usually defined, the stoichiometry N is a count of units in the complex or per binding partner. “IolR, myo-inositol catabolism repressor (RpiR-like transcriptional repressor) of Salmonella enterica (natural protein)” registered a stoichiometry N in data set [2] of 4.

B1: Ppat45 (dsDNA)
DNA 1: CAACCAGTTTAGGTGAACATTTCACCCGTTTCAAAACGCGCTATCT
DNA 2: AGATAGCGCGTTTTGAAACGGGTGAAATGTTCACCTAAACTGGTTG
On to B1, for which, in data set [3], the binding result is recorded as “binds”.
